Reference: article PMC6764996, “Molecular basis of microhomology-mediated end-joining by purified full-length Polθ”

Target: Polθ (full-length DNA polymerase theta) (human, UniProt O75417 1-2590)
Assay: fluorescence anisotropy; 1 mM ATP, 10 mM MgCl2; KD printed only in figure; significantly lower than Polθ-pol and Polθ-hel; Anisotropy: 25 mM Tris-HCl pH 8.8, 1 mM DTT, 0.01% NP-40, 10 mM MgCl2, 10% glycerol, 0.1 mg/ml BSA, 1 mM ATP, 30 mM NaCl, room temp, at least 30 min, 10 nM FAM-ssDNA
Details: protein: recombinant; tags: 3xFLAG (N-terminal); label: 5' FAM

Sequence of Polθ (full-length DNA polymerase theta) (O75417 whole entry): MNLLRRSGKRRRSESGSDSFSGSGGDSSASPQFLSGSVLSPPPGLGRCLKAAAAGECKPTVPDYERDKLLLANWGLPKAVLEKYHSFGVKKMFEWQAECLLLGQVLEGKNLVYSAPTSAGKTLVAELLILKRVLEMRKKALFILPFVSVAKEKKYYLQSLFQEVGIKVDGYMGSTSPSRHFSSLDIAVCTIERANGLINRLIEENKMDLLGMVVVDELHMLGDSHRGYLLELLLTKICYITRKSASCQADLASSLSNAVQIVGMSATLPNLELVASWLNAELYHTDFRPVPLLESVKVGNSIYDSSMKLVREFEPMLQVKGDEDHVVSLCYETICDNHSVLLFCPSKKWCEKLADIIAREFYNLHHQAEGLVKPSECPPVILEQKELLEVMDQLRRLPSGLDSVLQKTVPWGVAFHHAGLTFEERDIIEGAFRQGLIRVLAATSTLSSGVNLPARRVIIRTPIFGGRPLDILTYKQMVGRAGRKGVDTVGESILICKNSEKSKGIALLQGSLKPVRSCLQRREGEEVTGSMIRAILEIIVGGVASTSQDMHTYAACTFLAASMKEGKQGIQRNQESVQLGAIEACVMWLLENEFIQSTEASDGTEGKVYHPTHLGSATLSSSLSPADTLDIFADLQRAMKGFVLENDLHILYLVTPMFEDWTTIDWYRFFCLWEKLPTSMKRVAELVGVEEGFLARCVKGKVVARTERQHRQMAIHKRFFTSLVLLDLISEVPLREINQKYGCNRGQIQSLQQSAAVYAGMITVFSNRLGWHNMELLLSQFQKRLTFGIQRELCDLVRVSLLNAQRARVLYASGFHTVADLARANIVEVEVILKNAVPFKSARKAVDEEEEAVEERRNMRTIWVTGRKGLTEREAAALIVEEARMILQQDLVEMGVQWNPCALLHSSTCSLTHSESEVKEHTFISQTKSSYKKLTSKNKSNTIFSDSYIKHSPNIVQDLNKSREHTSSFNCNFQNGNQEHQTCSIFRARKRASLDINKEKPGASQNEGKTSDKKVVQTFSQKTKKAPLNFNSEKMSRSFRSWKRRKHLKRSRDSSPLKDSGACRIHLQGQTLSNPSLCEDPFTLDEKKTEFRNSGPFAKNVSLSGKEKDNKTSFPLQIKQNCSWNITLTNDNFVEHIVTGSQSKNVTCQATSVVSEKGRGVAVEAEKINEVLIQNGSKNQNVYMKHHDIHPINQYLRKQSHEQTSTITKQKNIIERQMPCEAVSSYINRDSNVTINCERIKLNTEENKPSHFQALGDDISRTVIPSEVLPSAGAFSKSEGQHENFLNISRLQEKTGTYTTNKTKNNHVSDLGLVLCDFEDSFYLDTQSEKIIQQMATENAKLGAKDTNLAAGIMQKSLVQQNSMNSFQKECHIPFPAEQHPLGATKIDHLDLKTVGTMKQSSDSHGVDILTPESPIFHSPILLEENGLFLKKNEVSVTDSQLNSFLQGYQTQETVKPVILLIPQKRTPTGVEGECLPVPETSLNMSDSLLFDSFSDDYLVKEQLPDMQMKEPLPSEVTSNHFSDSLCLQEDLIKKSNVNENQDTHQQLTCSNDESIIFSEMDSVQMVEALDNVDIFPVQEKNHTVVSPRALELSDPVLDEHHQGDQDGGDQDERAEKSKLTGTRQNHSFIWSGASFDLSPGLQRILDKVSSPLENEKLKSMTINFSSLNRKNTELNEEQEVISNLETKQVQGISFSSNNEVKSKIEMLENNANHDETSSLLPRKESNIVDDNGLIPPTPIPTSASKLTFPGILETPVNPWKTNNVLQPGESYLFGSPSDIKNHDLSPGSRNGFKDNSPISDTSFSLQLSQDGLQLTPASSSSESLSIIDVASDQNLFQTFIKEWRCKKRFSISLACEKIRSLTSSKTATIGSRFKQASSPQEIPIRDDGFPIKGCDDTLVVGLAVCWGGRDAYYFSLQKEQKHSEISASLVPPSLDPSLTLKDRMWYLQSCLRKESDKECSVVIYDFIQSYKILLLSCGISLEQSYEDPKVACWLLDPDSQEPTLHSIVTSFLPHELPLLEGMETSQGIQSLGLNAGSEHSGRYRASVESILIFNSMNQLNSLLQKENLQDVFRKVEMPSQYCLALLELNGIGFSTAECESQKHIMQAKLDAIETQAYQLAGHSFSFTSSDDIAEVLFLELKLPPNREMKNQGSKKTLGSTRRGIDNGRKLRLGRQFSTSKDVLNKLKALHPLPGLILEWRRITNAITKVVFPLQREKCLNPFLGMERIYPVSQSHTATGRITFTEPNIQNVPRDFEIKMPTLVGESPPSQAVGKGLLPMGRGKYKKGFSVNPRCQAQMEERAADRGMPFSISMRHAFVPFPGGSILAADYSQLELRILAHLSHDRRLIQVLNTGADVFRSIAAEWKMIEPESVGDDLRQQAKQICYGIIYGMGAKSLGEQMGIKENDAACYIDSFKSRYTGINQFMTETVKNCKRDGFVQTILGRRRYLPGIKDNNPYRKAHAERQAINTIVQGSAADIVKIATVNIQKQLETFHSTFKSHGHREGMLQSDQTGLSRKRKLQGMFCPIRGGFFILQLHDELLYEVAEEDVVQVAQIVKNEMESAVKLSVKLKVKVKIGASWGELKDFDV

TTTTTTTTTTTTTTTTTTTTTTTTTTTTT (ssDNA) [RP316FAM5 (29 nt ssDNA)]
binding result: binds
